Data as given in patent US20200129630A1, “METHODS FOR TREATING CANCER” (BicycleRD Limited, priority 2018, published 2020).
Numbered stars: 1 amine (or outer) side, 2 acyl side, 3 side chain; on linkers, the order of the positions; unused ones are H or OH. Bridge positions count the residues as written; N and C are the ends. Square brackets hold non-standard residues; d marks the D form. Peptide text beside a SMILES is read from it. * marks the point of attachment. X1 = COc1cc2cc(c1Cl)N(C)C(=O)C[C@H](OC(=O)[C@H](C)N(C)C(=O)CCSSC(C)CCC(=O)*)[C@]1(C)O[C@H]1[C@H](C)[C@@H]1C[C@@](O)(NC(=O)O1)[C@H](OC)/C=C/C=C(\C)C2; 1Nal = N[C@@H](Cc1cccc2ccccc12)C(=O)O; TBMB = c1c(C[*:1])cc(C[*:3])cc1C[*:2]; Tle = CC(C)(C)[C@H](N)C(=O)O; βAla = NCCC(=O)O; Sar = CNCC(=O)O

Assays:
HT-1080 = assay: In vitro cytotoxicity (CellTiter-Glo) HT-1080; assay type: cell-based; settings: HT-1080, Fibrosarcoma
From the text: (§1) Table 1 and Table 2 Notes: in general regression and stable disease correlated with the in vitro cytotoxicity and MT1-MMP expression. Female BALB/c mice n=3/group animals dosed twice per week except EBC-1 three per week. Tumor growth inhibition (TGI) (%)=[1−(Ti−T0)/(Vi−V0)]×100; Ti is the average tumor volume of a treatment group on a given day, TO is the average tumor volume of the treatment group on the day of treatment start, Vi is the average tumor volume of vehicle control group on the same day with Ti, and V0 is the average tumor volume of vehicle group on the day of treatment start. A one-way ANOVA was performed to compare tumor volume among groups, and when a significant F-statistics (a ratio of treatment variance to the error variance) was obtained, comparisons between groups were carried out with Games-Howell test. All data were analyzed using GraphPad Prism.* p<0.05, ** p<0.01, *** p<0.001. In vitro cytotoxicity was measured by CellTiter-Glo®, MT1-MMP membrane H score from immunohistochemistry staining, NM not measured. Tumor size on Day 1 of dosing.

[1] = Stability in whole blood in vitro, human; assay type: in vitro ADME; settings: 37° C.
Method: (§2) The stability of BT1718 was assessed in plasma and whole blood from humans, monkey, dog, mouse and rat. […] The mechanism for the difference in stability of the BT1718 peptide in whole blood between the different species is unknown.

[2] = Distribution into blood cells; assay type: in vitro ADME; settings: comparable across human and all preclinical species tested
HCT-15 = assay: In vitro cytotoxicity (CellTiter-Glo) HCT-15; assay type: cell-based; settings: HCT-15, Colorectal
From the text: as §1

[3] = GLP-compliant 28-day repeat dose toxicity study, monkey; assay type: in vivo, Cynomolgus monkeys
Method: In a GLP-compliant study in Cynomolgus monkeys, the highest non-severely toxic dose (HNSTD) of BT1718 was established to be 18 mg/m^2 administered twice weekly, equivalent to a human dose of 0.48 mg/kg. In a GLP-compliant study in the rat, the MTD was not reached with the highest administered dose 6 mg/m^2 twice weekly. At this dose level, there was kidney toxicity (with no effect on clinical condition) and also testicular toxicity. After 28 days off-dose, there was evidence of partial recovery of kidney-related findings, but no recovery of testicular effects at this dose level. […] Therefore, the MTD for rat for twice weekly dosing was considered to be between 1 and 1.5 mg/kg.

[4] = Stability in plasma in vitro, rat; assay type: in vitro ADME; settings: 37° C.
Method: as §2

SNU-16 = assay: In vitro cytotoxicity (CellTiter-Glo) SNU-16; assay type: cell-based; settings: SNU-16, Gastric
From the text: as §1

[5] = Crl:WI(Han) rat non-GLP tox study toxicokinetics; assay type: in vivo, Crl: WI(Han) rats; settings: male, plasma, iv
[6] = nu/nu BALB/c mouse PK study; assay type: in vivo; settings: plasma, 15 mg/m2, 15 mg/m^2 IV
HCC-1806 = assay: In vitro cytotoxicity (CellTiter-Glo) HCC-1806; assay type: cell-based; settings: HCC-1806, Breast
From the text: as §1

advanced solid tumors = assay: Phase I/IIa trial of BT1718 in patients with advanced solid tumors: safety and efficacy; assay type: in vivo
From the text: This is a multi-center, FIH, Phase I/IIa, open label dose escalation trial with an expansion phase, in patients with advanced solid tumors.
A DLT is defined as a probably or highly probably drug-related AE occurring during Cycle 1 (i.e. the first 28 days) which fulfils one or more of the following criteria, despite appropriate supportive clinical management (however, all clinically significant toxicities will be considered in dose review decisions and the determination of the Phase II dose): • Neutropenia Grade 4 (absolute neutrophil count [ANC]<0.5×10^9/L) for ≥seven days *see note; • Febrile neutropenia with Grade 3 or 4 neutropenia ANC <1.0×10^9/L and a single temperature of […] or a sustained temperature ≥38° C. for more than one hour); • Clinically significant infection (documented clinically or microbiologically) with Grade 3 or 4 neutropenia (ANC <1.0×10^9/L); • Thrombocytopenia Grade 4: a) for ≥five days *see note, or b) associated with active bleeding, or c) requiring platelet transfusion. • Grade 3 or 4 toxicity to organs other than the bone marrow, EXCLUDING: Grade 3 nausea; • Grade 3 or 4 vomiting in patients who have not received optimal treatment with anti-emetics; or • Grade 3 or 4 diarrhoea in patients who have not received optimal treatment with anti-diarrhoeals. • Transient, asymptomatic Grade 3 biochemical abnormalities if agreed by the Sponsor and the Study Team, including the Chief Investigator (CI). • Fatal event; • Any other related toxicity which leads to discontinuation of treatment in Cycle 1, or to a delay in dosing of >7 days (excluding where the delay is >7 days due to scheduling rather than a clinical decision); • Any other related toxicity that is greater than at baseline and is judged to be a DLT by the Sponsor, including the CI and Principal Investigators (PIs).
Definitions of disease status is in accordance with RECIST (Response Evaluation Criteria in Solid Tumors) 1.1, based on documentation of target and non-target lesions as specified in the BT1718 study protocol. All clinical measurements to assess response must be performed within one week of the first dose of BT1718.
An open label, first in human phase Ulla study of once-weekly (QW) and twice-weekly (BIW) dosing schedules in patients with advanced solid tumours was undertaken.
4-week cycle: 1 hour intravenous (IV) infusions for 3 weeks, followed by a 1 week break.

## COc1cc2cc(c1Cl)N(C)C(=O)C[C@H](OC(=O)[C@H](C)N(C)C(=O)CCSSC(C)CCC(=O)NCCC(=O)N(C)CC(=O)N(C)CC(=O)N(C)CC(=O)N(C)CC(=O)N(C)CC(=O)N(C)CC(=O)N(C)CC(=O)N(C)CC(=O)N(C)CC(=O)N(C)CC(=O)N[C@@H](C)C(=O)N[C@H]1CSCc3cc4cc(c3)CSC[C@H](NC(=O)[C@@H](C)NC(=O)[C@H](Cc3cccc5ccccc35)NC(=O)[C@H](CCC(=O)O)NC(=O)[C@H](CC(N)=O)NC(=O)[C@@H](C)NC1=O)C(=O)N[C@@H](CCC(=O)O)C(=O)N[C@@H](CC(=O)O)C(=O)N[C@@H](Cc1ccccc1)C(=O)N[C@@H](Cc1ccc(O)cc1)C(=O)N[C@@H](CC(=O)O)C(=O)N[C@@H](C(C)(C)C)C(=O)N[C@H](C(N)=O)CSC4)[C@]1(C)O[C@H]1[C@H](C)[C@@H]1C[C@@](O)(NC(=O)O1)[C@H](OC)/C=C/C=C(\C)C2 (stereo partly shown) [BT1718] ({X1-βAla}-[Sar][Sar][Sar][Sar][Sar][Sar][Sar][Sar][Sar][Sar]AC[dA]NE[1Nal][dA]CEDFYD[Tle]C-NH2; linker 12-18-25 via TBMB (inferred))
HT-1080
  IC50: 4.3 nM
[1]
  half-life: 120 to 240 min
[2]
  distribution into blood cells: limited distribution into blood cells
HCT-15
  IC50: 870 nM
[3]; 28 day-repeat dose GLP monkey study, twice weekly
  HNSTD: 1.5 mg/kg
[3]; Cynomolgus monkeys, GLP, twice weekly
  highest non-severely toxic dose (HNSTD): 18 mg/m^2
[3]; GLP monkey
  GI-related findings: No GI-related findings
  bladder changes: No bladder changes
[3]; GLP monkey up to 1.5 mg/kg, 18 mg/m^2 twice weekly
  liver toxicity: No liver toxicity
[3]; GLP monkey, 0.5 mg/kg (6 mg/m^2) twice weekly and above
  local toxicity at or around injection site: black colouration of the skin
[3]; GLP monkey, highest dose tested 1.5 mg/kg (18 mg/m^2)
  renal changes: No renal changes
[3]; GLP monkey, twice weekly
  onset dose of minimal axonal degeneration: 1 mg/kg
[3]; from 18 mg/m^2 twice weekly in monkeys
  HNSTD, equivalent human dose: 0.48 mg/kg
[3]; monkey 28-day GLP study
  anti-drug antibodies (ADAs) in serum: negative
[3]; monkey studies
  reproductive organ findings: No changes in reproduction organs
[3]; monkeys 1 mg/kg (12 mg/m^2) twice weekly or above
  increase in platelets: 1.4-2.5 ×
[3]; monkeys 1 mg/kg or 1.5 mg/kg twice weekly
  lymphoid findings: Reversible thymus atrophy and decreased germinal centres in lymph nodes
[3]; monkeys, onset 0.5 mg/kg (6 mg/m^2) twice weekly, reversible
  white blood cell (WBC) reduction, maximum: 0.11 ×
[3]; monkeys, onset 1 mg/kg (12 mg/m^2) twice weekly, reversible
  reticulocyte reduction, maximum: 0.2 ×
[4]
  half-life: > 360 min
SNU-16
  IC50: 19.5 nM
[5]; 1.2 mg/m2, read-out: C0/Cmax
  Cmax: 100 ± 10 nM
[5]; 6 mg/m2, read-out: C0/Cmax
  Cmax: 400 ± 140 nM
[6]
  AUC: 1.7 ± 0.3 µM·h
  clearance: 10.6 ± 1.5 mL/min/kg
  half-life: 25.8 ± 2.4 min
[6]; read-out: C0/Cmax
  Cmax: 5.8 ± 0.94 µM
[6]; read-out: Vdss
  Vd: 0.26 ± 0.08 L/kg
HCC-1806
  IC50: 1.4 nM
Advanced solid tumors; 9.6 mg/m^2 BIW (cohort 5)
  DLTs: 2×DLTs (GGT, fatigue) and increased GGT (grade 4) and fatigue (grade 3)
Advanced solid tumors; human, in vivo
  Drug-related Alanine aminotransferase increased, number of patients, n = 28 (frequency): 8 (28.6%)
  Drug-related Anaemia, number of patients, n = 28 (frequency): 7 (25.0%)
  Drug-related Aspartate aminotransferase increased, number of patients, n = 28 (frequency): 9 (32.1%)
  Drug-related Blood alkaline phosphatase increased, number of patients, n = 28 (frequency): 5 (17.9%)
  Drug-related Decreased appetite, number of patients, n = 28 (frequency): 9 (32.1%)
  Drug-related Diarrhea, number of patients, n = 28 (frequency): 10 (35.7%)
  Drug-related Fatigue, number of patients, n = 28 (frequency): 9 (32.1%)
  Drug-related Gamma-glutamyltransferase increased, number of patients, n = 28 (frequency): 5 (17.9%)
  Drug-related Lethargy, number of patients, n = 28 (frequency): 6 (21.4%)
  Drug-related Nausea, number of patients, n = 28 (frequency): 12 (42.9%)
  Drug-related Neuropathy peripheral, number of patients, n = 28 (frequency): 9 (32.1%)
  Drug-related Vomiting, number of patients, n = 28 (frequency): 9 (32.1%)
  Grade 1-2 related peripheral neuropathy: occurred more commonly with increasing dose
  RP2D for twice weekly dosing: 7.2 mg/m^2
Advanced solid tumors; including nausea, diarrhea and vomiting
  patients with related grade 1-3 gastrointestinal disorders: 18/28
Advanced solid tumors; once weekly dosing, dose levels tested
  tolerability: tolerable
